The target of data set [1] is MBP-afadin-PDZ (MBP-fusion protein of the PDZ domain of afadin) (UniProt O35889). Put plainly: affinity chromatography on MBP-afadin-PDZ amylose beads, eluate on SDS-PAGE.
Data set [2] concerns the molecule itself. Put plainly: immunofluorescence microscopy of co-cultured nectin-1α-L and nectin-2α-L cells. Here is the method: Chemical cross-linking was done according to the method described in references (Blood 92: 4602-4611, 1998; J. Biol. Chem., 275: 613-618, 2000). Immunoprecipitation was performed according to the method described in references (J. Cell Biol., 145: 539-549, 1999; J. Biol. Chem., 275: 613-618, 2000). Immunofluorescence microscopy of cultured cells was done according to the method described in references (J. Cell Biol., 139: 517-528, J. Cell Biol., 145: 539-549, 1999; J. Biol. Chem., 275: 613-618, 2000). Protein concentrations were determined with bovine serum albumin as a control, according to the method described in a reference (Anal. Biochem., 72: 248-254, 1976). SDS-PAGE was done as described (Nature, 227: 680-685, 1970).
When nectin-1α-L cells were co-cultured with nectin-2α-L cells, nectin-1α and nectin-2α were localized in the cell-cell contact sites of the respective L cells (FIG. 5, A1-A3). However, neither nectin-1α or nectin-2α was detected in the contact sites of the two types of the L cells. In contrast, when nectin-3α-L cells were co-cultured with nectin-1α-L cells, nectin-3α and nectin-1α coexisted in the cell-cell contact site of the two types of the L cells (FIG. 5, B1-B3). The same result was obtained in co-culture of nectin-3α-L cells and nectin-2α-L cells (FIG. 5, C1-C3).

Regarding “GST-nectin-3α-CP (GST-fusion protein of the cytoplasmic region of nectin-3α) (from UniProt Q9JLB9 433-549)”, the stoichiometry of binding (nectin-3α:afadin ratio) in data set [1] amounted to 1.

B1: Full-length human nectin-1α expressed on L cells (nectin-1α-L cells) (receptor, UniProt Q15223 31-517, looked up)
chain: QVVQVNDSMYGFIGTDVVLHCSFANPLPSVKITQVTWQKSTNGSKQNVAIYNPSMGVSVLAPYRERVEFLRPSFTDGTIRLSRLELEDEGVYICEFATFPTGNRESQLNLTVMAKPTNWIEGTQAVLRAKKGQDDKVLVATCTSANGKPPSVVSWETRLKGEAEYQEIRNPNGTVTVISRYRLVPSREAHQQSLACIVNYHMDRFKESLTLNVQYEPEVTIEGFDGNWYLQRMDVKLTCKADANPPATEYHWTTLNGSLPKGVEAQNRTLFFKGPINYSLAGTYICEATNPIGTRSGQVEVNITEFPYTPSPPEHGRRAGPVPTAIIGGVAGSILLVLIVVGGIVVALRRRRHTFKGDYSTKKHVYGNGYSKAGIPQHHPPMAQNLQYPDDSDDEKKAGPLGGSSYEEEEEEEEGGGGGERKVGGPHPKYDEDAKRPYFTVDEAEARQDGYGDRTLGYQYDPEQLDLAENMVSQNDGSFISKKEWYV
notes: whole, on cells
Turning to B1, the binding result in data set [2] was “binds”.

The values are drawn from patent publication US20030008334A1 (published 2003).
